From patent publication US6545141

Molecular target: T7 peptide-added FC99 protein having T7 peptide added to the N-terminal of the amino acid sequence described as SEQ ID NO: 1 (human) (UniProt Q92529)
Assay: cell-based or functional assay

Sequence of UniProt Q92529 (Q92529 other isoform, or with tags, fused parts or gaps limits assumed): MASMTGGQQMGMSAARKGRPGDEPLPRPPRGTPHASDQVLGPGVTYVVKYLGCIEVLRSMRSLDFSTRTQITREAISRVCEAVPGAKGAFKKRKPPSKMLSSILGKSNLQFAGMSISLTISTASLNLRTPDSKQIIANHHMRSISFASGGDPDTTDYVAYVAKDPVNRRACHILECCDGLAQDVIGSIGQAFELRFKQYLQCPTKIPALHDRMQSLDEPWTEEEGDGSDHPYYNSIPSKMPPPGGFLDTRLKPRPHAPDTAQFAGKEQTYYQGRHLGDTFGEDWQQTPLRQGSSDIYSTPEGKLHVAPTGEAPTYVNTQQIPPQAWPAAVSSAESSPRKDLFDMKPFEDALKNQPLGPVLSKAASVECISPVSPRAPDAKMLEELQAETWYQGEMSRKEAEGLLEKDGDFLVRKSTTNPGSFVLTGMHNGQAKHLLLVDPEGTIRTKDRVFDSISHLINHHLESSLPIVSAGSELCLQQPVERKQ

BDNF-dependent increase in the tyrosine phosphorylation of the FC99 protein (band densities of Lanes 2 and 3, NIH Image): 2 fold
Substance: TrkB receptor activated by the administration of BDNF
